Stoichiometry N data for four substances are collected here from PMC9989821.

What all share (experiment): crystal structure; VP1 pentamers (His-tag cleaved) at 3-4 mg/mL, hanging drop vapor diffusion at 20°C, 10-18% PEG 3.350, 0.1 M HEPES pH 7.5, 0.1-0.3 M LiCl; self-association of VP1 into a pentamer
Experiment [1] concerns the target BK polyomavirus VP1 mutant E73A (VP1 pentamer, residues 30-300) (BK polyomavirus) (UniProt P03088).
Experiment [2] addresses BK polyomavirus VP1 mutant E73Q (VP1 pentamer, residues 30-300) (BK polyomavirus) (UniProt P03088).
Experiment [3] addresses BK polyomavirus VP1 mutant N-Q, K69N E82Q (VP1 pentamer, residues 30-300) (BK polyomavirus) (UniProt P03088).
Experiment [4] deals with BK polyomavirus VP1 mutant VQQ, A72V E73Q E82Q (VP1 pentamer, residues 30-300) (BK polyomavirus) (UniProt P03088).

In general, stoichiometry N refers to the number of molecules, sites or subunits per partner or assembly. Consider “BK polyomavirus VP1 mutant E73A (VP1 pentamer, residues 30-300) (from UniProt P03088 30-300) (domain or fragment)”, for which, in experiment [1], the stoichiometry N was 5.
In experiment [2], “BK polyomavirus VP1 mutant E73Q (VP1 pentamer, residues 30-300) (from UniProt P03088 30-300) (domain or fragment)” yielded a stoichiometry N of 5.
“BK polyomavirus VP1 mutant N-Q, K69N E82Q (VP1 pentamer, residues 30-300) (from UniProt P03088 30-300) (domain or fragment)” showed a stoichiometry N in experiment [3] of 5.
In turn, “BK polyomavirus VP1 mutant VQQ, A72V E73Q E82Q (VP1 pentamer, residues 30-300) (from UniProt P03088 30-300) (domain or fragment)” showed a stoichiometry N in experiment [4] of 5.
